Measurements from the nanobody polyreactivity screen of Harvey et al. (2022).

experiment: yeast display, Sf9 membrane polyspecificity reagent, FACS + sequencing; frameworks hold sequencing errors
Procedure, shortened: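 Nanobodies came from a synthetic yeast display library in Saccharomyces cerevisiae BJ5465, induced with galactose for 36–48 hours and stained for 1 hour at 4 °C with 10% biotinylated, detergent-solubilized Sf9 membrane reagent. Cells were enriched on streptavidin microbeads and then FACS-sorted, with low and high (top ~1%) gates set on anti-HA fluorescence for expression and streptavidin fluorescence for reagent binding. Each polyreactivity label reflects the gate a clone came from. Genes were amplified by colony PCR, sequenced by MiSeq 2 × 250 and filtered by CDR length.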

Sequence | polyreactivity (PSR sort gate)
QVQLVESGGGLVQAGGSLRLSCAASGITFYDYAMGWYRQAPGKERELVAAISDSGGITYYADSVKGRFTISRDNAKNTVYLQMNSLKPEDTAVYFCAAEDQLNRDYWGQGTQVTVSS | high polyreactivity
QVQLVESGGGLVQAGGSLRLSCAASGITFYDYAMGWYRQAPGKERELVASIDNSGGSTYYADSVKGRFTISRDNAKNTVYLQMNSLNPEDTAVYYCAAVSRYYFLGVAFLDDYWGQGTQVTVSS | high polyreactivity
QVQLVESGGGLVQAGGSLRLSCAASGITFYEYAMGWYRQAPGKEREFVAAIDDGDSSTYYADSVKGRFTISRDNAKNTVYLQMHSLKPEDTAVYYCNADPYYVYSLNWGDFWGQGTQVTVSS | low polyreactivity
QVQLVESGGGLVQAGGSLRLSCAASGITFYEYTMGWYRQAPGKERELVAVIRKTGGSTYYADSVKGRFTISRDNAKNTVYLQMNSLKPEDTAVYYCAARKRYQRGYWGQGTLVTVSS | high polyreactivity
QVQLVESGGGLVQAGGSLRLSCAASGITFYFNAMGWYRQAPGKERELVAAITFSGSSTYYADSVKGRFTISRDKAKNTVYLQMNSLKPEDTAVYYCAAYFTRYDFRWHTYYYWGEGTQVTVSS | low polyreactivity
QVQLVESGGGLVQAGGSLRLSCAASGITFYFNAMGWYRQAPGKERELVAVITSGGSTNYADSVKGRFTISRDNAKNTVYLQMNSLKPEDTAVYYCANDKSYSSWSAQYDYWGQGTHVTVSS | low polyreactivity
QVQLVESGGGLVQAGGSLRLSCAASGITFYFYAMGWSRQAPGKERELVSTISGGGSTSYADSVKGRFTISRDNAKNSVYLQMNSLKPEDTAVYYCAATGYSLRSGKRRPLRSGYYYWGQGTQVTVSW | high polyreactivity
QVQLVESGGGLVQAGGSLRLSCAASGITFYFYAMGWYRQAPGKERELVASITSSGSTDYADSVKGRFTISRDNAKNTVYLQMNSLKPEDTAVYYCAADVQNHFYSFGDERGFPFDYWGQGTQVTVSS | low polyreactivity
QVQLVESGGGLVQAGGSLRLSCAASGITFYGNAMGWYRQAPGTERELVAAITGGGGTNYADSVKGRFTISRDNAKNTVYLQMNSLKPEDTAVYYCNRDYFVWFQRGQYKRGSSWYDYWGQGTQVTVSS | low polyreactivity
QVQLVESGGGLVQAGGSLRLSCAASGITFYGYAMGWSRPAPGKERELVAVITSSGSSTYYADSVKGRFTISRDKAKNTVYVQMNSLKPEDTAVYDCNARPGRRSLRSRTYDYWGQGTQVTVSS | high polyreactivity
QVQLVESGGGLVQAGGSLRLSCAASGITFYGYAMGWYRQAPGKERELVAAISGNGGRTYYADSVKGRFTISRDNAKNTVYLQMNSLKPEDTAVYYCNVKVRSRRTGDRYDYWGQGTQVTVSS | high polyreactivity
QVQLVESGGGLVQAGGSLRLSCAASGITFYGYAMGWYRQAPGKERELVAAISKSGGSTHYADSVKGRFTISRDNAKNTVYLQMNSLKPEDTAVYYCAAAYWTRLRRMDYWGQGTQVTVSS | low polyreactivity
QVQLVESGGGLVQAGGSLRLSCAASGITFYGYAMGWYRQAPGKERELVARISSGGTTKYADSVKGRFTISRDNAKNTVYLQMNSLKPEDTAVYYCAVGGSWWYYGFYYWGQATQVTVSS | high polyreactivity
QVQLVESGGGLVQAGGSLRLSCAASGITFYGYAMGWYRQAPGKERELVARITISGRTNYADYVKGRFTISRDNAKNTVYLQMNSLKPEDTAVYYCATLVHWSYPYYYWGQGTQVTVSS | high polyreactivity
QVQLVESGGGLVQAGGSLRLSCAASGITFYGYAMGWYRQAPGKERELVASINSTGSTNYADSVKGRFTISRDNAKNTVYLQMNSLKPDDTAVYYCAARYRDGYRSKRKFGYWGQGTQVTVSS | high polyreactivity
QVQLVESGGGLVQAGGSLRLSCAASGITFYGYAMGWYRQAPGKERELVAVITSSGSSTYYADSVKGRFTISRDNAKNTVYLQMNSLTPEDTAVYYCNARPGRRSLRSRTYDYWGQGTQVTVSS | high polyreactivity

Sequence | polyreactivity (PSR sort gate)
QVQLVESGGGLVQAGGSLRLSCAASGITFYGYTIGWYRQAPGKERELVATITRGGSTYYADSVKGRFTISLDNAKNTVYLQMNSLKPEDTAGYYCAAESQYDYGVEFDYWGQGTQVTVSS | low polyreactivity
QVQLVESGGGLVQAGGSLRLSCAASGITFYGYTMGWYRQAPGKERELVAAITYFGSTYYADSVKGRFTISRDNAKNTVYLQMNSLKPEDTAVYYCAAQRFRSGWFGYWGQGTQVTVSS | high polyreactivity
QVQLVESGGGLVQAGGSLRLSCAASGITFYHYAMGWYRQAPGKERELVAAITRSGGRTYYADSVKGRFTISRDNAKNTVFLQMNSLKPEDTAVYYCATDDRQGYFRSPREYDYWGQGTQVTVSS | high polyreactivity
QVQLVESGGGLVQAGGSLRLSCAASGITFYKNAMGWYRQAPGKERELVAAISSGGGTTYADSVKGRFTISRDNAKNTVYLQMNSLKPEDTAVYYCAADRRYYWYNYWGLGTQVTVSS | high polyreactivity
QVQLVESGGGLVQAGGSLRLSCAASGITFYKYVMGWYRQAPGKERELVAAISSVGSTYYADSVKGRFTISRDNAKNTVYLQMNSLKPEDTAVYYCNARVYYSTTRYYVRVDYWGQGTQVTVSS | high polyreactivity
QVQLVESGGGLVQAGGSLRLSCAASGITFYKYVMGWYRQAPGKETELVAAISSVGSTYYADSVKGRFTISRDNAKNTVYLQMNSLKPEDTAVYYCAAKYWKCYHYGFGYWGQGTQVTVSS | high polyreactivity
QVQLVESGGGLVQAGGSLRLSCAASGITFYLNAMVWYRQAPGKERELVADITVSGGSTYYADSVKGRFTISRDYAKNTVYLQMNRLKPEDTAVYYCAADLTISYSQEYYYWGQGTQVTVSS | low polyreactivity
QVQLVESGGGLVQAGGSLRLSCAASGITFYPYAMGWYRQAPGKERELVAAITGSGGRTYYADSVKGRFTISRDNAKNTVYLQMNSLKPEDTAVYYCAKVARYPDMGYWGQGTQVTVSS | high polyreactivity
QVQLVESGGGLVQAGGSLRLSCAASGITFYPYAMGWYRQAPGKERELVASISWSGGSTYYADSVKGRFTISRDNAKNTVYLQMNSLKPEDTAVFYCNAEYWLPYYPDYDYWGQGTQVTVSS | low polyreactivity
QVQLVESGGGLVQAGGSLRLSCAASGITFYRNAMGSYRQAPGKERELVADIDVGDGTYYADSVKGRFTISRDNCKNTVYLQMNSLKPEDTAVYYCNKTFLFLEYDSWGQGTQVTVSS | low polyreactivity
QVQLVESGGGLVQAGGSLRLSCAASGITFYRYAMGWSRQAPGKERELVAAITWSGGSTYYADSVKGRFTISRDNAKNTVYLQMNSLKPEDTAVYYCAAVLYSPDFFGNYDYWGQGTQVTVSS | low polyreactivity
QVQLVESGGGLVQAGGSLRLSCAASGITFYRYAMGWYREAPGKERELVAAISRSGGGTHYADTVKGRFTISRDNAMNTVYLQMYCLKPEDTAVFYCAASAYSYDYWGQGNQVTVSS | high polyreactivity
QVQLVESGGGLVQAGGSLRLSCAASGITFYRYAMGWYRQAPGKERELVAAITWSGGSTYYADSVKGRFTISRDNAKNTVYLQMNSLKPEDTAVYYCAVDYTPEDWGDDYWGQGTQVTVSS | low polyreactivity
QVQLVESGGGLVQAGGSLRLSCAASGITFYRYAMGWYRQSPGKETQLVAAIRRAGSTYYADSVKGRFTISRDNAKNTVYLQMNSLKPEDTAVYYCAAPYRLEPLSTHGSWGQGTQVTVSS | high polyreactivity
QVQLVESGGGLVQAGGSLRLSCAASGITFYRYAMRWYRQAPGKERELVAAISRSGGSTYYADSVKGRFTISRDNAKNTVYLQMNILKPEDTAVYYCAAYILGNRDGYDYWGQGTQVTVSS | high polyreactivity
